Columns and labels:
HeLa Kyoto [1] = experiment: solubility in G1/S (NP-40 vs SDS abundance) (log2 ratio); higher = more soluble; conditions: cell cycle stage: G1/S
HeLa Kyoto [2] = experiment: melting temperature (median over replicates), in situ; higher = more thermally stable
HeLa Kyoto [3] = experiment: solubility change mitosis vs G1/S (difference of NP-40 vs SDS log2 ratios) (log2 ratio difference); higher = more soluble in mitosis
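Wherever melting temperature (median over replicates), in situ is given: HeLa Kyoto cells synchronized by double thymidine or nocodazole block, proteins quantified by TMT10plex mass spectrometry, three independent biological replicates.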
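Wherever solubility change mitosis vs G1/S (difference of NP-40 vs SDS log2 ratios) is given: synchronized HeLa Kyoto cells (double thymidine block for G1/S, nocodazole release for mitosis), protein amounts in NP-40 versus SDS lysates quantified by mass spectrometry, three biological replicates.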
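Wherever solubility in G1/S (NP-40 vs SDS abundance) is given: HeLa Kyoto cells arrested at G1/S by double thymidine block, proteins quantified by TMT10plex mass spectrometry in mild NP-40 versus SDS extracts, three biological replicates.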

Row | Sequence | solubility in G1/S (log2) (HeLa Kyoto [1]) | melting temperature (HeLa Kyoto [2]; cell cycle stage: G1/S) | melting temperature (HeLa Kyoto [2]; cell cycle stage: mitosis) | solubility change mitosis (log2) (HeLa Kyoto [3])
1 | MEDPFEEADQPTTEPGMVLDSVEAGDTTPPTKRKSKFSGFGKIFKPWKWRKKKSSDKFKETSEVLERKISMRKPREELVKRGVLLEDPEQGGEDPGKPSDAMLKNGHTTPIGNARSSSPVQVEEEPVRLASLRKAIPEEDLKKRLGSTGSQPNSEAESVPENVPKPPLLPPKRPLSSSHEASEGQAKDATSSGGTARFIISTSITTAPAATTAATSLAKTVNLSVTPSPAPRTLPAAPASTNTTATPSLTHMVPAKQPPIPPPKPAHRNSNPVIAELSQAINSGTLLSKPSPPLPPKRGIPSTSVPTLESAAAITTKTPSDEREKSTCSMGSELLPMISPRSPSPPLPTHIPPEPPRTPPFPAKTFQVVPEIEFPPSLDLHQEIPQQEDQKKEVPKRILDQNFGEPHIPSRLPPLPLHIRIQQALTSPLPMTPILEGSHRAHSLLFENSDSFSEDSSTLGRTRSLPITIEMLKVPDDEEEEEQTCPSTFSEEMTPTSVIPKLPQCLREEEEKESDSDSEGPIQYRDEEDEDESYQSALANKVKRKDTLAMKLNHRPSEPELNLNSWPCKSKEEWNEIRHQIGNTLIRRLSQRPTPEELEQRNILQPKNEADRQAEKREIKRRLTRKLSQRPTVAELLARKILRFNEYVEVTDAQDYDRRADKPWTKLTPADKAAIRKELNEFKSSEMEVHEESKHFTRYHRP [PHACTR4] | 0.401 | 54.3 °C | 54.9 °C | 0.0651
2 | MEESEPERKRARTDEVPAGGSRSEAEDEDDEDYVPYVPLRQRRQLLLQKLLQRRRKGAAEEEQQDSGSEPRGDEDDIPLGPQSNVSLLDQHQHLKEKAEARKESAKEKQLKEEEKILESVAEGRALMSVKEMAKGITYDDPIKTSWTPPRYVLSMSEERHERVRKKYHILVEGDGIPPPIKSFKEMKFPAAILRGLKKKGIHHPTPIQIQGIPTILSGRDMIGIAFTGSGKTLVFTLPVIMFCLEQEKRLPFSKREGPYGLIICPSRELARQTHGILEYYCRLLQEDSSPLLRCALCIGGMSVKEQMETIRHGVHMMVATPGRLMDLLQKKMVSLDICRYLALDEADRMIDMGFEGDIRTIFSYFKGQRQTLLFSATMPKKIQNFAKSALVKPVTINVGRAGAASLDVIQEVEYVKEEAKMVYLLECLQKTPPPVLIFAEKKADVDAIHEYLLLKGVEAVAIHGGKDQEERTKAIEAFREGKKDVLVATDVASKGLDFPAIQHVINYDMPEEIENYVHRIGRTGRSGNTGIATTFINKACDESVLMDLKALLLEAKQKVPPVLQVLHCGDESMLDIGGERGCAFCGGLGHRITDCPKLEAMQTKQVSNIGRKDYLAHSSMDF [DDX41] | -0.425 | 47.5 °C | 49 °C | 0.325
3 | MEGGFGSDFGGSGSGKLDPGLIMEQVKVQIAVANAQELLQRMTDKCFRKCIGKPGGSLDNSEQKCIAMCMDRYMDAWNTVSRAYNSRLQRERANM [TIMM13] | -0.594 | 53.8 °C | – | 0.337
4 | MEKIEEQFANLHIVKCSLGTKEPTYLLGIDTSKTVQAGKENLVAVLCSNGSIRIYDKERLNVLREFSGYPGLLNGVRFANSCDSVYSACTDGTVKCWDARVAREKPVQLFKGYPSNIFISFDINCNDHIICAGTEKVDDDALLVFWDARMNSQNLSTTKDSLGAYSETHSDDVTQVRFHPSNPNMVVSGSSDGLVNVFDINIDNEEDALVTTCNSISSVSCIGWSGKGYKQIYCMTHDEGFYWWDLNHLDTDEPVTRLNIQDVREVVNMKEDALDYLIGGLYHEKTDTLHVIGGTNKGRIHLMNCSMSGLTHVTSLQGGHAATVRSFCWNVQDDSLLTGGEDAQLLLWKPGAIEKTFTKKESMKIASSVHQRVRVHSNDSYKRRKKQ [WDR89] | -1.26 | 57.4 °C | 55.9 °C | 0.369
5 | MEPAVSLAVCALLFLLWVRLKGLEFVLIHQRWVFVCLFLLPLSLIFDIYYYVRAWVVFKLSSAPRLHEQRVRDIQKQVREWKEQGSKTFMCTGRPGWLTVSLRVGKYKKTHKNIMINLMDILEVDTKKQIVRVEPLVTMGQVTALLTSIGWTLPVLPELDDLTVGGLIMGTGIESSSHKYGLFQHICTAYELVLADGSFVRCTPSENSDLFYAVPWSCGTLGFLVAAEIRIIPAKKYVKLRFEPVRGLEAICAKFTHESQRQENHFVEGLLYSLDEAVIMTGVMTDEAEPSKLNSIGNYYKPWFFKHVENYLKTNREGLEYIPLRHYYHRHTRSIFWELQDIIPFGNNPIFRYLFGWMVPPKISLLKLTQGETLRKLYEQHHVVQDMLVPMKCLQQALHTFQNDIHVYPIWLCPFILPSQPGLVHPKGNEAELYIDIGAYGEPRVKHFEARSCMRQLEKFVRSVHGFQMLYADCYMNREEFWEMFDGSLYHKLREKLGCQDAFPEVYDKICKAARH [DHCR24] | -0.264 | 51.3 °C | 52.3 °C | -0.166
6 | MEQPWPPPGPWSLPRAEGEAEEESDFDVFPSSPRCPQLPGGGAQMYSHGIELACQKQKEFVKSSVACKWNLAEAQQKLGSLALHNSESLDQEHAKAQTAVSELRQREEEWRQKEEALVQREKMCLWSTDAISKDVFNKSFINQDKRKDTEDEDKSESFMQKYEQKIRHFGMLSRWDDSQRFLSDHPYLVCEETAKYLILWCFHLEAEKKGALMEQIAHQAVVMQFIMEMAKNCNVDPRGCFRLFFQKAKAEEEGYFEAFKNELEAFKSRVRLYSQSQSFQPMTVQNHVPHSGVGSIGLLESLPQNPDYLQYSISTALCSLNSVVHKEDDEPKMMDTV [CDC37L1] | 0.655 | 46.3 °C | 50.9 °C | -0.0113
7 | METPGASASSLLLPAASRPPRKREAGEAGAATSKQRVLDEEEYIEGLQTVIQRDFFPDVEKLQAQKEYLEAEENGDLERMRQIAIKFGSALGKMSREPPPPYVTPATFETPEVHAGTGVVGNKPRPRGRGLEDGEAGEEEEKEPLPSLDVFLSRYTSEDNASFQEIMEVAKERSRARHAWLYQAEEEFEKRQKDNLELPSAEHQAIESSQASVETWKYKAKNSLMYYPEGVPDEEQLFKKPRQVVHKNTRFLRDPFSQALSRCQLQQAAALNAQHKQGKVGPDGKELIPQESPRVGGFGFVATPSPAPGVNESPMMTWGEVENTPLRVEGSETPYVDRTPGPAFKILEPGRRERLGLKMANEAAAKNRAKKQEALRRVTENLASLTPKGLSPAMSPALQRLVSRTASKYTDRALRASYTPSPARSTHLKTPASGLQTPTSTPAPGSATRTPLTQDPASITDNLLQLPARRKASDFF [DGCR14] | 0.334 | 50 °C | 52.4 °C | 0.458
8 | MFVSDFRKEFYEVVQSQRVLLFVASDVDALCACKILQALFQCDHVQYTLVPVSGWQELETAFLEHKEQFHYFILINCGANVDLLDILQPDEDTIFFVCDTHRPVNVVNVYNDTQIKLLIKQDDDLEVPAYEDIFRDEEEDEEHSGNDSDGSEPSEKRTRLEEEIVEQTMRRRQRREWEARRRDILFDYEQYEYHGTSSAMVMFELAWMLSKDLNDMLWWAIVGLTDQWVQDKITQMKYVTDVGVLQRHVSRHNHRNEDEENTLSVDCTRISFEYDLRLVLYQHWSLHDSLCNTSYTAARFKLWSVHGQKRLQEFLADMGLPLKQVKQKFQAMDISLKENLREMIEESANKFGMKDMRVQTFSIHFGFKHKFLASDVVFATMSLMESPEKDGSGTDHFIQALDSLSRSNLDKLYHGLELAKKQLRATQQTIASCLCTNLVISQGPFLYCSLMEGTPDVMLFSRPASLSLLSKHLLKSFVCSTKNRRCKLLPLVMAAPLSMEHGTVTVVGIPPETDSSDRKNFFGRAFEKAAESTSSRMLHNHFDLSVIELKAEDRSKFLDALISLLS [CDC45] | -0.233 | 47.6 °C | 48.5 °C | -0.126
9 | MGAQFSKTAAKGEAAAERPGEAAVASSPSKANGQENGHVKVNGDASPAAAESGAKEELQANGSAPAADKEEPAAAGSGAASPSAAEKGEPAAAAAPEAGASPVEKEAPAEGEAAEPGSPTAAEGEAASAASSTSSPKAEDGATPSPSNETPKKKKKRFSFKKSFKLSGFSFKKNKKEAGEGGEAEAPAAEGGKDEAAGGAAAAAAEAGAASGEQAAAPGEEAAAGEEGAAGGDPQEAKPQEAAVAPEKPPASDETKAAEEPSKVEEKKAEEAGASAAACEAPSAAGPGAPPEQEAAPAEEPAAAAASSACAAPSQEAQPECSPEAPPAEAAE [MARCKS] | -0.36 | 55.6 °C | – | 0.579
10 | MGDDQEDDFPRRLSESMEDLSLDLGALQGSEYLQDLGLGAPSHSQPGETPDSRPTGEEPGRDSLFSSLAGSQDLSRRRSWERSRSCSESWRRLSLDASAVDEEPCLPRTLASLALNLPGGGLKTWTQGCLSGGGTPAESPGKECDSPKKRGRSRSVPVSFYEIRSPEISPGLEVPTPPVQGLEPPVLECMEKDHVEPDHVLIVQQVLQELRQYHGARQRACMSASPGGAHSNLTWFEFLSESEDGAGKNEKSDKSTSVKRRLSCLRSRVTRQKEKGKSPAHLKDKGQDARERRECVNGHQLLQGTFSGPSSCPLCGKPFLSSASLKEHPRGTLLSDGSPALSRNVGMTVSQKGGPQPTPSPAGPGTQLGPITGEMDEADSAFLKFKQTADDSLSLTSPNTESIFVEDPYTASLRSEIESDGHEFEAESWSLAVDAAYAKKQKREVVKRQDVLYELMQTEVHHVRTLKIMLKVYSRALQEELQFSSKAIGRLFPCADDLLETHSHFLARLKERRQESLEEGSDRNYVIQKIGDLLVQQFSGENGERMKEKYGVFCSGHNEAVSHYKLLLQQNKKFQNLIKKIGNFSIVRRLGVQECILLVTQRITKYPVLVERIIQNTEAGTEDYEDLTQALNLIKDIISQVDAKVSECEKGQRLREIAGKMDLKSSSKLKNGLTFRKEDMLQRQLHLEGMLCWKTTSGRLKDILAILLTDVLLLLQEKDQKYVFASVDSKPPVISLQKLIVREVANEEKAMFLISASLQGPEMYEIYTSSKEDRNAWMAHIQRAVESCPDEEEGPFSLPEEERKVVEARATRLRDFQERLSMKDQLIAQSLLEKQQIYLEMAEMGGLEDLPQPRGLFRGGDPSETLQGELILKSAMSEIEGIQSLICRQLGSANGQAEDGGSSTGPPRRAETFAGYDCTNSPTKNGSFKKKVSSTDPRPRDWRGPPNSPDLKLSDSDIPGSSEESPQVVEAPGTESDPRLPTVLESELVQRIQTLSQLLLNLQAVIAHQDSYVETQRAAIQEREKQFRLQSTRGNLLLEQERQRNFEKQREERAALEKLQSQLRHEQQRWERERQWQHQELERAGARLQEREGEARQLRERLEQERAELERQRQAYQHDLERLREAQRAVERERERLELLRRLKKQNTAPGALPPDTLAEAQPPSHPPSFNGEGLEGPRVSMLPSGVGPEYAERPEVARRDSAPTENRLAKSDVPIQLLSATNQFQRQAAVQQQIPTKLAASTKGGKDKGGKSRGSQRWESSASFDLKQQLLLNKLMGKDESTSRNRRSLSPILPGRHSPAPPPDPGFPAPSPPPADSPSEGFSLKAGGTALLPGPPAPSPLPATPLSAKEDASKEDVIFF [ARHGEF18] | 0.0647 | 51.9 °C | 51.1 °C | -0.0175
11 | MGEDAAQAEKFQHPGSDMRQEKPSSPSPMPSSTPSPSLNLGNTEEAIRDNSQVNAVTVLTLLDKLVNMLDAVQENQHKMEQRQISLEGSVKGIQNDLTKLSKYQASTSNTVSKLLEKSRKVSAHTRAVKERMDRQCAQVKRLENNHAQLLRRNHFKVLIFQEENEIPASVFVKQPVSGAVEGKEELPDENKSLEETLHTVDLSSDDDLPHDEEALEDSAEEKVEESRAEKIKRSSLKKVDSLKKAFSRQNIEKKMNKLGTKIVSVERREKIKKSLTSNHQKISSGKSSPFKVSPLTFGRKKVREGESHAENETKSEDLPSSEQMPNDQEEESFAEGHSEASLASALVEGEIAEEAAEKATSRGSNSGMDSNIDLTIVEDEEEESVALEQAQKVRYEGSYALTSEEAERSDGDPVQPAVLQVHQTS [SDPR] | -0.0681 | 53.9 °C | 53.4 °C | 0.043

From the supplement of paper PMC5998384
